The values below come from patent US20260209294A1, “USE OF RECOMBINANT PROTEIN IN PREPARING DRUG FOR INHIBITING ANEURYSM” (HUAZHONG UNIVERSITY OF SCIENCE AND TECHNOLOGY, priority 2022, published 2026).

The test system of test [1] is aortic aneurysm induced by Fbn1^C1041G/+ mutation. Put plainly: AGGF1 treatment of spontaneous aortic aneurysm in Fbn1 C1041G/+ mutant mice. Type of test: in vivo. An excerpt:
FIG. 13 depicts an AGGF1 treatment for a spontaneous aortic aneurysm in FbnC1041G/+ mutant mice. […] The bar graph on the right illustrates the luminal diameter of the ascending aortic. […] The GAPDH serves as a loading control. […] The bar graphs on the right indicate the percentage of the positive area for the respective immunostaining quantification. *, P<0.05; **, P<0.01; ***, P<0.001; n=8/group for mouse studies, other sample sizes n=4/group.
The present disclosure obtained the previously published Fbn1^C1041G/+ mutant mice from Tongji Hospital. Compared with the wild-type mice, we detected spontaneous aortic expansion in these mice at week 10, resulting in the aortic aneurysm. After obtaining these mice, at week 10, mice were intraperitoneally injected with Buffer or AGGF1 protein, and the injection continued until week 18. At week 18, mice underwent ultrasound examination, then were euthanized and their aortas were collected for Western Blotting experiments and histochemical staining.

The test system of test [2] is BAPN-induced aortic aneurysm. As to the kind of experiment: β-aminopropionitrile (BAPN)-induced aortic aneurysm model. The test is classed as in vivo, C57BL/6 male mice. Conditions: BAPN-fed mice. An excerpt: FIG. 14 depicts an AGGF1 treatment for a β-aminopropionitrile (BAPN)-induced aortic aneurysm. […] The bar graphs below show the intimal thickness (1st image), the adventitia thickness (2nd image), and the total carotid artery wall thickness (3rd image). […] The bar graphs on the right show the percentage of the positive area for respective immunostaining quantifications. […] The GAPDH serves as a loading control. *, P<0.05; **, P<0.01; ***, P<0.001; n≥8/group for mouse studies, other sample sizes n=4/group.
β-aminopropionitrile is a lysyl oxidase (LOX) inhibitor that is readily soluble in water. Three-week-old mice fed with 0.25% BAPN have a very high incidence of the thoracic aortic aneurysm after 4 weeks. Three-week-old C57BL/6 male mice were divided into 4 groups, with ultrasound detection of the aorta on day 28, followed by euthanasia and collection of the aorta for Western Blotting experiments and histochemical staining.

The subject of test [3] is TAC-induced mouse aneurysm model. As to the kind of experiment: TAC (transverse aortic constriction)-induced aneurysm model, i.p. recombinant AGGF1 or AGGF1-RDDdel protein. Type of test: in vivo, C57BL/6 mice. The note with it: 0.5 mg/kg i.p., day 21.

B1: AGGF1 protein: recombinant human AGGF1 protein with His tag, SEQ ID NO:1, expressed from pet28-AGGF1 in Escherichia coli BL21 (DE3) (protein, listed as Homo sapiens)
chain: MASEAPSPPRSPPPPTSPEPELAQLRRKVEKLERELRSCKRQVREIEKLLHHTERLYQNAESNNQELRTQVEELSKILQRGRNEDNKKSDVEVQTENHAPWSISDYFYQTYYNDVSLPNKVTELSDQQDQAIETSILNSKDHLQVENDAYPGTDRTENVKYRQVDHFASNSQEPASALATEDTSLEGSSLAESLRAAAEAAVSQTGFSYDENTGLYFDHSTGFYYDSENQLYYDPSTGIYYYCDVESGRYQFHSRVDLQPYPTSSTKQSKDKKLKKKRKDPDSSATNEEKDLNSEDQKAFSVEHTSCNEEENFANMKKKAKIGIHHKNSPPKVTVPTSGNTIESPLHENISNSTSFKDEKIMETDSEPEEGEITDSQTEDSYDEAITSEGNVTAEDSEDEDEDKIWPPCIRVIVIRSPVLQIGSLFIITAVNPATIGREKDMEHTLRIPEVGVSKFHAEIYFDHDLQSYVLVDQGSQNGTIVNGKQILQPKTKCDPYVLEHGDEVKIGETVLSFHIHPGSDTCDGCEPGQVRAHLRLDKKDESFVGPTLSKEEKELERRKELKKIRVKYGLQNTEYEDEKTLKNPKYKDRAGKRREQVGSEGTFQRDDAPASVHSEITDSNKGRKMLEKMGWKKGEGLGKDGGGMKTPIQLQLRRTHAGLGTGKPSSFEDVHLLQNKNKKNWDKARERFTENFPETKPQKDDPGTMPWVKGTLE
modifications: His tag
As for B1, the “expansion of the ascending aorta” value in test [1] (i.p. from week 10 to week 18, ultrasound at week 18) is “significantly inhibit”. Also, in test [1] (week 18), the “increase in αSMA/CD68/MCP1 levels (immunostaining positive areas)” value is recorded as “significantly inhibit”; the “level of mature TGFβ1 (Western blot, ascending aorta)” value is on record as “inhibited”; the “p-ERK (Western blot, ascending aorta)” value was “inhibited”; the “p-Smad2 (Western blot, ascending aorta)” value is “inhibited”. Besides, in test [1] (week 18), the “p-Smad3 (Western blot, ascending aorta)” value is recorded as “inhibited” and the “thickening of the vascular media” value is listed as “significantly inhibit”. Moreover, in test [2], the “incidence of BAPN-induced aortic dissection” value is listed as “no effect”; the “level of the mature TGFβ1 (Western blot, ascending aorta)” value is given as “inhibited”; the “p-ERK (Western blot, ascending aorta)” value is listed as “inhibited”; the “p-Smad2 (Western blot, ascending aorta)” value is on record as “inhibited”. In test [2], the “p-Smad3 (Western blot, ascending aorta)” value was “inhibited” and the “survival rate of aneurysm model mice” value is recorded as “significantly improve”. In addition, in test [2] (day 28), the aortic inflammation result was “significantly inhibited”; the aortic remodeling entry is “significantly inhibited”; the “aortic thickening (H&E staining)” value is listed as “significantly inhibited”; the “vascular expansion (ascending aorta, ultrasound)” value is reported as “inhibitory effect”. Also, in test [3], the “level of the mature TGFβ1 (Western blot, ascending aorta, FIG. 7)” value is “inhibit”; the “p-ERK1/2 (Western blot, ascending aorta, FIG. 7)” value is listed as “inhibit”; the “p-Smad3 (Western blot, ascending aorta, FIG. 7)” value is “inhibit”.
